Reference: article PMC6743330

Target: PtmU3 (Streptomyces platensis CB00739)
Experiment: SEC

stoichiometry N: 2
Substance: PtmU3 (enzyme)
